“And” between values parts separate entries of the source, which are not always exact repeats. Identical values can stand only once.
Target: RAVE–V1 complex (yeast | yeast (endogenous), UniProt P47104 1-1357; Q03956 1-351; P52286 1-194; P16140 1-517; P32610 1-256; P22203 …, VMA1 intein (284-737) spliced out; Rav2 C-terminal FLAG and Skp1 C-terminal 6xGly-6xHis tags omitted; subunit C (Vma5) only substoichiometric, so omitted; V1 copy numbers (A3B3DE3FG3H) and RAVE 1:1:1)
Assay: BLI; Octet RED384, 22 °C, PBS or TBSE with 0.5 mg/ml BSA; MBP-C (5 μg/ml) captured by anti-MBP antibody on anti-mouse IgG sensors; RAVE–V1 or RAVE in solution at varied concentrations, 2400 s association and 2400 s dissociation; global single-site fit
Conditions: both partners purified

B1: maltose-binding protein (MBP)–tagged subunit C (natural protein, yeast, UniProt P31412 1-392, looked up)
chain: MATALYTANDFILISLPQNAQPVTAPGSKTDSWFNETLIGGRAFVSDFKIPEFKIGSLDTLIVESEELSKVDNQIGASIGKIIEILQGLNETSTNAYRTLPINNMPVPEYLENFQWQTRKFKLDKSIKDLITLISNESSQLDADVRATYANYNSAKTNLAAAERKKTGDLSVRSLHDIVKPEDFVLNSEHLTTVLVAVPKSLKSDFEKSYETLSKNVVPASASVIAEDAEYVLFNVHLFKKNVQEFTTAAREKKFIPREFNYSEELIDQLKKEHDSAASLEQSLRVQLVRLAKTAYVDVFINWFHIKALRVYVESVLRYGLPPHFNIKIIAVPPKNLSKCKSELIDAFGFLGGNAFMKDKKGKINKQDTSLHQYASLVDTEYEPFVMYIINL
notes: V-ATPase V1 subunit C (Vma5), yeast; MBP was not cleaved; also called MBP-C; expressed subunit C; source: E. coli Rosetta2, purified (amylose column)
B1 was tested, and the Kd was 13.6 nM and 18.1 nM.
